From CN116836274A (DONGGUAN PENGZHI BIOTECHNOLOGY CO LTD, dated 2023)
Positions count from the first letter of the chain named.

B1: Anti-SAA-11A4mut1 (antibody, mouse IgG1, kappa, V domains shown)
VH: QVQLQQSGAELVRPGVSVKISCKGSGYTFTDYAMHWVKQSHAKSLEWIGVINTYYGDASYNQKFKGKATMTEDKSSSTVYMELARLTSEDSAIYYCARGSSIMITSWFAYWGQGTLVTVSA
VL: DIQMTQSPASLSASVGETVTITCRASENIYSYLAWYQQKQGKSPQLLVYNAKTLAEGVPSRFSGSGSGTQFSLKINSLQPEDFGSYYCQHHYGTPLTFGTGTKLELKR
B2: Anti-SAA-11A4mut2 (antibody, mouse IgG1, kappa, V domains shown)
VH: B1 VH with I102L
VL: B1 VL
B3: Anti-SAA-11A4mut3 (antibody, V domains shown)
VH: B1 VH
VL: B1 VL with L96I

What was measured:
[1] = target: 血清淀粉样蛋白A (Serum amyloid A, SAA), 购自Yashraj biotechnology limited, 货号FRSAA-61 (UniProt P0DJI8); assay: biosensor with AMC sensors, antibody captured at 10 ug/ml, SAA in a dilution series in PBST
[2] = target: T1, 血清淀粉样蛋白A (Serum amyloid A, SAA), 购自Yashraj biotechnology limited, 货号FRSAA-61 (UniProt P0DJI8 19-122, limits assumed); assay: as above
T1 construct: Bought antigen
T1 sequence (looked up): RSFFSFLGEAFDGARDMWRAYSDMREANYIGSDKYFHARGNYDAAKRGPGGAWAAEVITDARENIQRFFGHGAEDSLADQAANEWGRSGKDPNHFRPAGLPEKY

Molecule | Kd [1] | koff [1] | kon [1] | Kd [2] | koff [2] | kon [2]
对照 (antibody) | 9.01 nM | 0.000219 s⁻¹ | 24300 M⁻¹ s⁻¹ |  |  | 
B1 |  |  |  | 0.0322 nM | 1.12e-06 s⁻¹ | 34800 M⁻¹ s⁻¹
B2 |  |  |  | 0.827 nM | 3.05e-05 s⁻¹ | 36900 M⁻¹ s⁻¹
B3 |  |  |  | 0.0386 nM | 1.3e-06 s⁻¹ | 33700 M⁻¹ s⁻¹
